Each block holds one substance with its values, some of them ahead of it.
How the values were obtained:
S100P (Homo sapiens) = S100P (Homo sapiens) (UniProt P25815); settings: cited from earlier work
[1] = target: S100P (monomeric) (Homo sapiens) (UniProt P25815); settings: cited from earlier work
[2] = target: Human erythropoietin (Epoetin β) (human) (UniProt P01588); assay: SPR; EPO immobilised by amine coupling on a ProteOn GLH chip (up to 3 000 RU); S100 or CaM as analyte (0.25–4 μM); 25 °C; 10 mM HEPES, 150 mM NaCl, 0.05% TWEEN 20, pH 7.4, 1 mM CaCl2; heterogeneous ligand model, values averaged over analyte concentrations (n = 5)

Sequence of Human S100A2 protein (P29034 4-98): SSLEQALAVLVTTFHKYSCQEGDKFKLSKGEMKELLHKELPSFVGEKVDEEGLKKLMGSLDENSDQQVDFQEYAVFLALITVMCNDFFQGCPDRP
Sequence of interleukin 11 (P20809 22-199): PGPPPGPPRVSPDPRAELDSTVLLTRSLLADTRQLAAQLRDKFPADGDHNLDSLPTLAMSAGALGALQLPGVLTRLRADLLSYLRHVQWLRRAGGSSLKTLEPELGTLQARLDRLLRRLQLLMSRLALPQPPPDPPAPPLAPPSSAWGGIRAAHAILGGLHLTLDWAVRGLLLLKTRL
Sequence of S100P (monomeric) (Homo sapiens) (P25815 whole entry): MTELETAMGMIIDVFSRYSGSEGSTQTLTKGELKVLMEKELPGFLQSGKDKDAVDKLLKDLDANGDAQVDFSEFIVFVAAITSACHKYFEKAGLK
Sequence of S100P (P25815 whole entry): as above
Sequence of S100P (Homo sapiens) (P25815 whole entry): as above

Substance: S100P (from UniProt P25815)
- Kd (S100P (Homo sapiens)): 64 nM

Substance: interleukin 11 (from UniProt P20809)
- Kd [1]: 1 nM

- Kd1 (heterogeneous ligand model, ligand population L1) [2]: 81 nM
- Kd2 (heterogeneous ligand model, ligand population L2) [2]: 1.2 µM
- ka1 (heterogeneous ligand model, ligand population L1) [2]: 2200 M⁻¹ s⁻¹
- ka2 (heterogeneous ligand model, ligand population L2) [2]: 10000 M⁻¹ s⁻¹
- kd1 (heterogeneous ligand model, ligand population L1) [2]: 0.00018 s⁻¹
- kd2 (heterogeneous ligand model, ligand population L2) [2]: 0.012 s⁻¹
Substance: Human S100A2 protein (from UniProt P29034 4-98) (natural protein)

From article PMC8773746
